Results published in the nanobody polyreactivity screen of Harvey et al. (2022).

Assay: yeast display, Sf9 membrane polyspecificity reagent, FACS + sequencing; frameworks hold sequencing errors
Summary of the method: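 In a synthetic yeast display library (Saccharomyces cerevisiae BJ5465), nanobody expression was induced with galactose for 36–48 hours. FACS gates were set low and high (top ~1%) using anti-HA fluorescence for expression and streptavidin fluorescence for binding of the Sf9 membrane reagent. Each polyreactivity label is drawn from the gate of origin.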

Sequence | polyreactivity (PSR sort gate)
QVQLVESGGGLVQAGGSLRLSCAASGSTFQSNAMGWYRQAPGKERELVAAINSGTSTYYADSVKGRFTISRDNAKNTVYLQMNSLKPEDTAVYYCAADGIWGEYYYSELGDYDYWGQGTQVTVSS | low polyreactivity
QVQLQESGDGLVQALGSLRLSCAASGYISGYYYMGWYRQAPGKERELVAGIDAFGSSTNYADCVKGRFTISRDNAKNTVYLQMNSPKPVDTAVYYCAAEYDDWDYHWYWGEGTQVTVSS | low polyreactivity
QVQLVESGGGLVQAGGSLRLSCAASGSTFRHYAMGWYRQAPGKERELVAVISWGGTSTYYADSVKGRFTISRDNAKNTVYLQMNSLKPEDTAVYYCAVKYAYPYAGVSAIRYYYWGQGTQVTVSS | low polyreactivity
QVQLVESGGGIVQAGGSLRLSCAASGFILDYNAMGWYRQAPGKERELVATITGRGDRTYYADSVKGRFTISRDNAKNTVYLQMNSLKPEDTAVYDCAAGFDGSRHPGFDSWGQGTQVTVSS | low polyreactivity
QVQLVESGGGLVQAGGSLRISCAASGRTLTSNAMGWYRQAPGKERELVASITGSSSNTYYADSVKGRFTISRDNAKNTVYLQMNSLKPEDTAVSYCAAEVGFPWWRLDEYWGQGTQVTVSS | low polyreactivity
QVQLVESGGGLVQAGGSLRLSCAASGSIFRKNAMGWYRQAPGKERELVAAISSSGGRTYYADSVKGRFTISRDNAKNTVYLQMNSLKPEDTAVYYCAAVYSKGGSSRISPGDDYWGQGTQVTVSS | high polyreactivity
QVQLVESGGGLVQAGGSLRLSCAASGSTFGRYAMGWYRQAPGKESELVAAISSSGGRTYYADSVKGRFTISRDNAKNTVYLQMNSLKPEDTAVYYCAAPGAQGLGLRGAGLDYWGQGTQVTVSW | high polyreactivity
QVQLVESGGGLVQAGGSLRLSCAASGRIFGSYAMGWYRQAPGKERELVAAITRSGGSTYYADSVKGRFTISRDNAKNTVYLQMNSLKPEDTAVYYCAAYFRFSGSAKFGYWGQGTQVTVSS | high polyreactivity
QVQLVESGGGLVQAGGSLRLSCAASGIIFTVYAMGWDRQAPGKERELVAAISFSTGRTYYADSVKGRFTISRDNAKNTVYLQMNSLKPEDTAVYYCAASAGHTFSKPFDRGRYGYWGQGTQVTVSS | high polyreactivity
QVQLVESGGGLVQAGGSLRLSCAASRIFRGYAMGWYRQAPGKERELVAAIRRGGSTNYADSVKGRFTIARDNAKNTVYLQMNSLKPEDTAVYYCNAYLYFPRYDYWGQGTQVTVSS | high polyreactivity
QVQLVESGGGLVQAGGSLRLSCAASGSIFTHNAMGWYRQAPGKERVLVAAISSGGSTNYADSVKGRFTISRDNAKNTVYLQMNSLKPEDTAVYYCAKSIDGWYWRRRRYDYWGQGTQVTVSS | low polyreactivity
QVQLVESGGGLVQAGGSLRLSCAASGRILGKNAMGWYRQAPRKERELVAAISGRGDRTHYADSVKGRFTISRDNAKNTVYLHMNSLKPEDTAVYYCAKDHHPPAKGQSVSLGYDYWGQGTQVTVSS | low polyreactivity
QDQLVESGGGLVQAGGSLRLSCAASGFTFGYYPMGWSRQAPGKERELVAAITSSGGRTYYADSVKGRFTISRDYGKNTVYLQMNSLKPEDTAVYYCATAYRPDYGYWGQGTQVTRSS | high polyreactivity
QVQLVESGGGLVQAGGSLRLSCAASGFTFGRNAMGWYRQAPGKERELVAAISSSGGTTYYADSVKGRFTISRDNAKNTVYLQMNSLKPEDTAVYSCAARRWYQSRRGGFDYWGQGTQVTVSS | high polyreactivity
QVQLVESGGGLVQAGGSLRLSCAASGSIFTWYAMGWYRQAPGKERELVAAITTGGDTYYADSVKGRFTISRDNAKNTVYLQMNSLKPEDTAVYYCAATPTYWYLCSPYDYWGQGTQVTVSS | low polyreactivity
QVQLVESGGRLVQAGGSLRLSCAASGRTFKKYAMGWYRQAPGKERELVAAITGSGGSTYYADSVKGRFTISRDNAKNTVYLQMNSLKPEDTAVYYCAAYAYGVWHSQDGGNFWGQGTQVTVSS | low polyreactivity
QVQLVDSGGGLVQAGGSLRLSCAASGSIFLLYVMGWYRQAPGKERELVAAISSGGSTNYADSVKGRFTISRDNAKITVYLQMNSLKPEDTAVYYCNAVAGPQGVKLYDYWGQGTQVTVSS | low polyreactivity
QVQLVESSGGLVQAGGSLSLSCADSGIIFYRYAMGWYIQAQGQERELVAAITWSGVSTSYADSVKGRFTISRDNAKNTVSIQMNSLKPEDTAVYYCNKDPGTLYGDMDSWGQGTQVTVSS | low polyreactivity
QVQLVESGGGLVQAGGSLRLSCAASGRIFGPYAMGWYRQAPRKERELVASISYSGGSTYYADSVKGRFTISRDNAKNTVYLQMNSLKPEDTAVYYCAKGGYWRGYNYWGQGTQVTVSS | low polyreactivity
QVQLVESGGGLVQAGGSLRLSSAASGRTSYVYAMGWYRQEPGKERELVAVITRRGGSTYYADSVKGRFTISRDNAKNTVYLQMNSLKPEDTAVYYCNAAYTTWRRGPMNYWGQGTQVTVSS | high polyreactivity
QVQLQESCGGLVQAGGSLCLSCAASGTIFFDGDMGWYRQAPGKEREFVAAINPGGSAYYADSVKGRLPLAAITHTVYLQMNSLKPEDTAVYYCAAKLFDVYGYYYWGQGTHVTVSS | low polyreactivity
QVQLLESGGGLVQAGGSLRLSCAASGLIFERYAMGWYRQAPGKERELVAAITRRGGSTYDADSVKGRFTISRDNAKNTVYFQMNSLKPEDTAVNYCAAGRPQDTEFDYWGLGTQVTVSS | high polyreactivity

Sequence | polyreactivity (PSR sort gate)
QVQLVESGGGLVQAGGSLRLSCAASGRIFRYYAMGWYRQAPGQERELVAAISWRGGITNYADSVKGRFTISRDNAKNTVYLQMNSLKPEDTAVYYCNRVQGPDSQAKTSMYYWGQGTQVTVSS | high polyreactivity
QVQLVESGGGLVQAGGSLRLSCAASGRTFAGNAMGWYRQAPGKEREMVAAISVSGSTTYYADSVKGRFTISRDNAKNTVYLQMNSLKPEDTAVYYCAARGLTYRSDMYYWGQGTQVTVSS | low polyreactivity
QVQLVESGGGLVQAGGSLRLSCAASGSIIGSYAMGWYRQAPGKERELVAAINSGGSTNYADSVKGRFTISRDNAKNTVYLQMNSLKPEDTAVYYCASRQVYKFRRYDYWGQGTQVTVSS | high polyreactivity
QVQLVESGGGLVQAGGSLRLSCAASGRIFGRYAMGWYRQAPGKERELVAVISSGGSTYYADSVKGRFTISRDNAKNTVYLQMNSLKPEDTAVYYCAAVNRGGYDYWGQGTQVTVSS | low polyreactivity
QVQLQESGGGLMQAGGSQRLSCAARGSISYYSDMGWYLQAPGKEREFVAGIGYGTTTNYADSVKGRFTTSRDNAKNTVYLQMISMKPEDTAVYYCAAYQGNGYEFYYWGQGTQVTVRS | low polyreactivity
QVQLQDSGGGLVQAGGSLRLNCATSGTIFVLWYMGWYRQAPGKERELVATINDGANTYYADSVKGRFTINRDNAYSTVYLKMNSLKPEDTAVYYCAVYAIIVWGLGYWGQGTQVTVSS | high polyreactivity
QVQHVESGGGLVQAGGSLRLSCAASGSILYLYAMGWYRQAPGKERELVAAISLGDGSTYYADSVKGRFTISRDNAKNTVYLQMNSLKPEDTAVYYCNADRYTYWQDYNYWGQGTQVTVSS | low polyreactivity
QDQLVESGGGLVQAGGSLRLSCAASGIILPRYAMGWYRQAPGKERELVAAISRGGGTYYADSVKGRFTISRDNAKNSVYLQMNSLKPEDTAFYYCDAAYVFVGSSHYYWGQGTQVTVSS | high polyreactivity
QVQLVESGGGLVQEGGSLRLSCDASGLILLPYARGWYRQAPGKERELVAAISCSGGSTYYADSVKGRFTISRDNAKNTVYLQMNSLKPEVTAVYYCPARPNRQGFYYWGQGTQVTVSS | high polyreactivity
QVQLVESGGGLVQAGGSLRLSCAASGSTFSPYARGWYRQAPGKERELVANITISGGSTYYADSVKGRFTISRENAKNTVYFQMNSLKPEDTGVYYSNADSLIRWLFTVVIFDYWGQGTQVTVSS | low polyreactivity
QVQLVESGGGLVQAGGSLRLSCAASGSTFFRYAMGWYRQAPGKEREFVAAITSSGGNTYYADSVKGRFTISRDNAKNTVYFQMNSLKPEDTAVYYCAAVWYSPYVKYNYWGQGTQVTVSS | low polyreactivity
QVQLVESGGGLVQAGGSLRLSCAASGSTSWLNAMGWYRQATGKERELVAAISVNTGSTYYADSVKGRFTISRDNAKNTVYLQMNSLKPEDTAVYYCAARGRGHGTTPNDYWGQGTQVTVSS | high polyreactivity
QVQLVESGGGLVQAGGILRLSCAASGSTFAQNAMGWYRQAPGKEREFVAAITGTVGSTYYADSVKGRFTISRDNAKNTVYLQMNSLKPEDTAVFYCNTRGFNGRVYPYDYWGQGTQVTVSS | low polyreactivity
QVQLVESGGGLVQAGGSLRLSCAASGSTYKGYAMGWYRQAPGKERELVAAISSSGGGTYYADSVKGRFTISRDNAKNTVYLQMNSLKPEDTAVYYCAATYYRGNYRTHYDYWGQGTQVTVSS | high polyreactivity
QVQLVESGGGLVQAGGSLRLSCAASGFIFQRYAMGWYRQAPGKERELVAAISWSGGITYYADSVKGRFTISRDNAKNTVYLQMHSLKPEDTAVYYCAAGLAVGDYYWGQGTQVTVSS | high polyreactivity
QVQLVDSGVGLVQAGGSLRLSCAASGRIFDYYAMGWYRQAPGKERELVAAITSGGTTTYYADSVKGRFTISRDNAKNTVYLQMNSLKPEDTAVYYCAASFFGDGYIDLWYKFDYWGQGTQVTVSS | low polyreactivity
QVQLVESGGGLVQAGGSLRLSCAASGRTLSVYAMGWYRQAPGKERELVAAITWRGGSTYYADSVKGRFTISRDNAKNTVYLQMNSLKPEDTAVYYCAAEDYTYNGGGYEYWGQGTQVTVSS | low polyreactivity
QVQLVESGGGLVQAGGSLRLSCAASGFIFVYYAMGWYRQAPGKERELVAAISKRGGNTYYADSVKGRFTISRDNAKNTVYLQMNSLKPEDTAVYYCAADGPGHYYAELEYDYWGQGTQVTVSS | high polyreactivity
QFQLVESGGGLVQAGGSLLLSCAASGSIFAPYDMGWYRQEPGKERELVAAISSSGGSTYYEDSVKGRFTISRDNSKNTVYLHMNSQKPEDTAVYYCDPEPYHGLYDYSGQGTQVTVSS | low polyreactivity
QVQLVESGGGLVQAGGSLRLSCAASGGTFKTNAMGWYRQAPGTERELVAAIRYSGGDTYYADSVKGRFTISRDNAKNTVYLLLKSLKPEDTAVYYCAADFTLLYDYWGQGTQVTVSS | low polyreactivity
QVQLVESGGGLVQAGGSLRLSCADSGSTFDSYAMGWYRQAPGKERELVASITSRGGRTYYADSVKGRFTISRDNAKNTVYLQMNSLKPEDTALYYCNAYRRNYYYYQRHGYWGQGTQVTVSS | high polyreactivity
